# Reference: US12630600B2 (MEDIMMUNE LIMITED, priority 2022, dated 2026)
# Starred links: 1 amine or outer side, 2 acyl side, 3 side chain; linkers in the order of their positions; H or OH if unused. Non-standard residues stand in square brackets, D forms with d. Groups on a side chain read outwards from the residue. No end group written: not given here. *: point of attachment. C20 diacid = O=C(O)CCCCCCCCCCCCCCCCCCC(=O)*; C18 diacid = O=C(O)CCCCCCCCCCCCCCCCC(=O)*; γGlu = O=C(O)[C@H](CCC(=O)[*:2])N[*:1]; αMeF = C[C@](N)(Cc1ccccc1)C(=O)O; AEEA = NCCOCCOCC(=O)O; Aib = CC(C)(N)C(=O)O
# B1: Peptide 149 (peptide)
# peptide: H[Aib]QGTFTSDVSK[αMeF]LDSK([AEEA-AEEA-γGlu-C18 diacid])RAQDFVRWVVE[Aib]G-OH
# modifications: N-terminus assumed
# SMILES: CC(C)C[C@H](NC(=O)[C@](C)(Cc1ccccc1)NC(=O)[C@H](CCCCN)NC(=O)[C@H](CO)NC(=O)[C@@H](NC(=O)[C@H](CC(=O)O)NC(=O)[C@H](CO)NC(=O)[C@@H](NC(=O)[C@H](Cc1ccccc1)NC(=O)[C@@H](NC(=O)CNC(=O)[C@H](CCC(N)=O)NC(=O)C(C)(C)NC(=O)[C@@H](N)Cc1c[nH]cn1)[C@@H](C)O)[C@@H](C)O)C(C)C)C(=O)N[C@@H](CC(=O)O)C(=O)N[C@@H](CO)C(=O)N[C@@H](CCCCNC(=O)COCCOCCNC(=O)COCCOCCNC(=O)CC[C@H](NC(=O)CCCCCCCCCCCCCCCCC(=O)O)C(=O)O)C(=O)N[C@@H](CCCNC(=N)N)C(=O)N[C@@H](C)C(=O)N[C@@H](CCC(N)=O)C(=O)N[C@@H](CC(=O)O)C(=O)N[C@@H](Cc1ccccc1)C(=O)N[C@H](C(=O)N[C@@H](CCCNC(=N)N)C(=O)N[C@@H](Cc1c[nH]c2ccccc12)C(=O)N[C@H](C(=O)N[C@H](C(=O)N[C@@H](CCC(=O)O)C(=O)NC(C)(C)C(=O)NCC(=O)O)C(C)C)C(C)C)C(C)C
# B2: Peptide 151 (peptide)
# peptide: H[Aib]QGTFTSDVSK[αMeF]LDSK([AEEA-AEEA-γGlu-C20 diacid])RAQDFVRWLL[Aib]TE-OH
# modifications: N-terminus assumed
# SMILES: CC(C)C[C@H](NC(=O)[C@H](Cc1c[nH]c2ccccc12)NC(=O)[C@H](CCCNC(=N)N)NC(=O)[C@@H](NC(=O)[C@H](Cc1ccccc1)NC(=O)[C@H](CC(=O)O)NC(=O)[C@H](CCC(N)=O)NC(=O)[C@H](C)NC(=O)[C@H](CCCNC(=N)N)NC(=O)[C@H](CCCCNC(=O)COCCOCCNC(=O)COCCOCCNC(=O)CC[C@H](NC(=O)CCCCCCCCCCCCCCCCCCC(=O)O)C(=O)O)NC(=O)[C@H](CO)NC(=O)[C@H](CC(=O)O)NC(=O)[C@H](CC(C)C)NC(=O)[C@](C)(Cc1ccccc1)NC(=O)[C@H](CCCCN)NC(=O)[C@H](CO)NC(=O)[C@@H](NC(=O)[C@H](CC(=O)O)NC(=O)[C@H](CO)NC(=O)[C@@H](NC(=O)[C@H](Cc1ccccc1)NC(=O)[C@@H](NC(=O)CNC(=O)[C@H](CCC(N)=O)NC(=O)C(C)(C)NC(=O)[C@@H](N)Cc1c[nH]cn1)[C@@H](C)O)[C@@H](C)O)C(C)C)C(C)C)C(=O)N[C@@H](CC(C)C)C(=O)NC(C)(C)C(=O)N[C@H](C(=O)N[C@@H](CCC(=O)O)C(=O)O)[C@@H](C)O
# B3: Peptide 146 (peptide)
# peptide: H[Aib]QGTFTSDVSK[αMeF]LDSK([AEEA-AEEA-γGlu-C18 diacid])RAQDFVRWLASR-OH
# modifications: N-terminus assumed
# SMILES: CC(C)C[C@H](NC(=O)[C@H](Cc1c[nH]c2ccccc12)NC(=O)[C@H](CCCNC(=N)N)NC(=O)[C@@H](NC(=O)[C@H](Cc1ccccc1)NC(=O)[C@H](CC(=O)O)NC(=O)[C@H](CCC(N)=O)NC(=O)[C@H](C)NC(=O)[C@H](CCCNC(=N)N)NC(=O)[C@H](CCCCNC(=O)COCCOCCNC(=O)COCCOCCNC(=O)CC[C@H](NC(=O)CCCCCCCCCCCCCCCCC(=O)O)C(=O)O)NC(=O)[C@H](CO)NC(=O)[C@H](CC(=O)O)NC(=O)[C@H](CC(C)C)NC(=O)[C@](C)(Cc1ccccc1)NC(=O)[C@H](CCCCN)NC(=O)[C@H](CO)NC(=O)[C@@H](NC(=O)[C@H](CC(=O)O)NC(=O)[C@H](CO)NC(=O)[C@@H](NC(=O)[C@H](Cc1ccccc1)NC(=O)[C@@H](NC(=O)CNC(=O)[C@H](CCC(N)=O)NC(=O)C(C)(C)NC(=O)[C@@H](N)Cc1c[nH]cn1)[C@@H](C)O)[C@@H](C)O)C(C)C)C(C)C)C(=O)N[C@@H](C)C(=O)N[C@@H](CO)C(=O)N[C@@H](CCCNC(=N)N)C(=O)O
# B4: Peptide 152 (peptide)
# peptide: H[Aib]QGTFTSDVSK[αMeF]LDSK([AEEA-AEEA-γGlu-C18 diacid])RAQDFVRWLL[Aib]E-OH
# modifications: N-terminus assumed
# SMILES: CC(C)C[C@H](NC(=O)[C@H](Cc1c[nH]c2ccccc12)NC(=O)[C@H](CCCNC(=N)N)NC(=O)[C@@H](NC(=O)[C@H](Cc1ccccc1)NC(=O)[C@H](CC(=O)O)NC(=O)[C@H](CCC(N)=O)NC(=O)[C@H](C)NC(=O)[C@H](CCCNC(=N)N)NC(=O)[C@H](CCCCNC(=O)COCCOCCNC(=O)COCCOCCNC(=O)CC[C@H](NC(=O)CCCCCCCCCCCCCCCCC(=O)O)C(=O)O)NC(=O)[C@H](CO)NC(=O)[C@H](CC(=O)O)NC(=O)[C@H](CC(C)C)NC(=O)[C@](C)(Cc1ccccc1)NC(=O)[C@H](CCCCN)NC(=O)[C@H](CO)NC(=O)[C@@H](NC(=O)[C@H](CC(=O)O)NC(=O)[C@H](CO)NC(=O)[C@@H](NC(=O)[C@H](Cc1ccccc1)NC(=O)[C@@H](NC(=O)CNC(=O)[C@H](CCC(N)=O)NC(=O)C(C)(C)NC(=O)[C@@H](N)Cc1c[nH]cn1)[C@@H](C)O)[C@@H](C)O)C(C)C)C(C)C)C(=O)N[C@@H](CC(C)C)C(=O)NC(C)(C)C(=O)N[C@@H](CCC(=O)O)C(=O)O
# B5: Peptide 148 (peptide)
# peptide: H[Aib]QGTFTSDVSK[αMeF]LDSK([AEEA-AEEA-γGlu-C18 diacid])RAQDFVRWIAE[Aib]G-OH
# modifications: N-terminus assumed
# SMILES: CC[C@H](C)[C@H](NC(=O)[C@H](Cc1c[nH]c2ccccc12)NC(=O)[C@H](CCCNC(=N)N)NC(=O)[C@@H](NC(=O)[C@H](Cc1ccccc1)NC(=O)[C@H](CC(=O)O)NC(=O)[C@H](CCC(N)=O)NC(=O)[C@H](C)NC(=O)[C@H](CCCNC(=N)N)NC(=O)[C@H](CCCCNC(=O)COCCOCCNC(=O)COCCOCCNC(=O)CC[C@H](NC(=O)CCCCCCCCCCCCCCCCC(=O)O)C(=O)O)NC(=O)[C@H](CO)NC(=O)[C@H](CC(=O)O)NC(=O)[C@H](CC(C)C)NC(=O)[C@](C)(Cc1ccccc1)NC(=O)[C@H](CCCCN)NC(=O)[C@H](CO)NC(=O)[C@@H](NC(=O)[C@H](CC(=O)O)NC(=O)[C@H](CO)NC(=O)[C@@H](NC(=O)[C@H](Cc1ccccc1)NC(=O)[C@@H](NC(=O)CNC(=O)[C@H](CCC(N)=O)NC(=O)C(C)(C)NC(=O)[C@@H](N)Cc1c[nH]cn1)[C@@H](C)O)[C@@H](C)O)C(C)C)C(C)C)C(=O)N[C@@H](C)C(=O)N[C@@H](CCC(=O)O)C(=O)NC(C)(C)C(=O)NCC(=O)O
# B6: Peptide 145 (peptide)
# peptide: H[Aib]QGTFTSDVSK[αMeF]LDSK([AEEA-AEEA-γGlu-C18 diacid])RAQDFVRWLASRGI-OH
# modifications: N-terminus assumed
# SMILES: CC[C@H](C)[C@H](NC(=O)CNC(=O)[C@H](CCCNC(=N)N)NC(=O)[C@H](CO)NC(=O)[C@H](C)NC(=O)[C@H](CC(C)C)NC(=O)[C@H](Cc1c[nH]c2ccccc12)NC(=O)[C@H](CCCNC(=N)N)NC(=O)[C@@H](NC(=O)[C@H](Cc1ccccc1)NC(=O)[C@H](CC(=O)O)NC(=O)[C@H](CCC(N)=O)NC(=O)[C@H](C)NC(=O)[C@H](CCCNC(=N)N)NC(=O)[C@H](CCCCNC(=O)COCCOCCNC(=O)COCCOCCNC(=O)CC[C@H](NC(=O)CCCCCCCCCCCCCCCCC(=O)O)C(=O)O)NC(=O)[C@H](CO)NC(=O)[C@H](CC(=O)O)NC(=O)[C@H](CC(C)C)NC(=O)[C@](C)(Cc1ccccc1)NC(=O)[C@H](CCCCN)NC(=O)[C@H](CO)NC(=O)[C@@H](NC(=O)[C@H](CC(=O)O)NC(=O)[C@H](CO)NC(=O)[C@@H](NC(=O)[C@H](Cc1ccccc1)NC(=O)[C@@H](NC(=O)CNC(=O)[C@H](CCC(N)=O)NC(=O)C(C)(C)NC(=O)[C@@H](N)Cc1c[nH]cn1)[C@@H](C)O)[C@@H](C)O)C(C)C)C(C)C)C(=O)O
# B7: Peptide 147 (peptide)
# peptide: H[Aib]QGTFTSDVSK[αMeF]LDSK([AEEA-AEEA-γGlu-C18 diacid])RAQDFVRWLEA[Aib]G-OH
# modifications: N-terminus assumed
# SMILES: CC(C)C[C@H](NC(=O)[C@H](Cc1c[nH]c2ccccc12)NC(=O)[C@H](CCCNC(=N)N)NC(=O)[C@@H](NC(=O)[C@H](Cc1ccccc1)NC(=O)[C@H](CC(=O)O)NC(=O)[C@H](CCC(N)=O)NC(=O)[C@H](C)NC(=O)[C@H](CCCNC(=N)N)NC(=O)[C@H](CCCCNC(=O)COCCOCCNC(=O)COCCOCCNC(=O)CC[C@H](NC(=O)CCCCCCCCCCCCCCCCC(=O)O)C(=O)O)NC(=O)[C@H](CO)NC(=O)[C@H](CC(=O)O)NC(=O)[C@H](CC(C)C)NC(=O)[C@](C)(Cc1ccccc1)NC(=O)[C@H](CCCCN)NC(=O)[C@H](CO)NC(=O)[C@@H](NC(=O)[C@H](CC(=O)O)NC(=O)[C@H](CO)NC(=O)[C@@H](NC(=O)[C@H](Cc1ccccc1)NC(=O)[C@@H](NC(=O)CNC(=O)[C@H](CCC(N)=O)NC(=O)C(C)(C)NC(=O)[C@@H](N)Cc1c[nH]cn1)[C@@H](C)O)[C@@H](C)O)C(C)C)C(C)C)C(=O)N[C@@H](CCC(=O)O)C(=O)N[C@@H](C)C(=O)NC(C)(C)C(=O)NCC(=O)O
# Legend:
# human GLP-1 receptor = human GLP-1 receptor (human, UniProt P43220); assay: cell-based or functional assay
# human glucagon receptor = human glucagon receptor (human, UniProt P47871); assay: cell-based or functional assay
Binder,cAMP production EC50 (human GLP-1 receptor) [pM],cAMP production EC50 (human glucagon receptor) [pM]
B1,8.71,2650
B2,111,178
B3,24.6,1630
H[Aib]QGTFTSDVSK[αMeF]LDSK([AEEA-AEEA-γGlu-C18 diacid])RAQDFVQWLL[Aib]TE-OH (not fully specified) [Peptide 150],166,355
B4,11.9,20.4
B5,40.2,568
B6,22.6,4590
B7,15.3,43.5
